Laboratory results reported in article PMC5123381.

Biological target: T1, CD11a (human (endogenous in NK92-CD16)) (UniProt P20701)
T1 sequence: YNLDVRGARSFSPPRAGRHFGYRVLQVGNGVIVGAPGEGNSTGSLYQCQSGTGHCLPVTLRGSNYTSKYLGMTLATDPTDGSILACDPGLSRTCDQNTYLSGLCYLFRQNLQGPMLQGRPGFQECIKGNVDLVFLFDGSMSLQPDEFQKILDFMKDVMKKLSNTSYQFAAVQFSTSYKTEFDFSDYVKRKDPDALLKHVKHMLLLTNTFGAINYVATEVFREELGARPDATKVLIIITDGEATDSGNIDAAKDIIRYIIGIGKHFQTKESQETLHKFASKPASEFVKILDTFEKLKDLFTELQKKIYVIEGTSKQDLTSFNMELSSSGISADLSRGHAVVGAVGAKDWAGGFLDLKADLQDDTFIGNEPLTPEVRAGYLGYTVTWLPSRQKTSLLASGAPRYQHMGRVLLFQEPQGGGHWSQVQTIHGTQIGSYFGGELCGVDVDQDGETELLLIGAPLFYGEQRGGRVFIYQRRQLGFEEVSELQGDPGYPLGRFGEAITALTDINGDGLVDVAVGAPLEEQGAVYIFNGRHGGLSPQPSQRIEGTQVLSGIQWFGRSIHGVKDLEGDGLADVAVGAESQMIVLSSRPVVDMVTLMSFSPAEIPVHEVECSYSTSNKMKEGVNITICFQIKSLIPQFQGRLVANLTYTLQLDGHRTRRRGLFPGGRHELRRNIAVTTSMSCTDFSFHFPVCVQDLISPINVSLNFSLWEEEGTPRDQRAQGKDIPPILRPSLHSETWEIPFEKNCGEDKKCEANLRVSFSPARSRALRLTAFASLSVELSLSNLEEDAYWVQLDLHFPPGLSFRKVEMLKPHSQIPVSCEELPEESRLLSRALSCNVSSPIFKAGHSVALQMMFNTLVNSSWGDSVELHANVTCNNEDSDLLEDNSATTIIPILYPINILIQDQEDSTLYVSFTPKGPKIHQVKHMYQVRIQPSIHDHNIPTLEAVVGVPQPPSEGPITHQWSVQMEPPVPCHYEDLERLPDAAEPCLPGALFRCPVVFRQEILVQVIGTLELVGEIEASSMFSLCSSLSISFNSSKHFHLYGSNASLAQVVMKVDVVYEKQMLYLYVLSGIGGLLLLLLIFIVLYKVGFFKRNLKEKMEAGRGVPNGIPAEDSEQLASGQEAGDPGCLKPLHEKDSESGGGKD

ICAM-1, sequence (P05362 28-532): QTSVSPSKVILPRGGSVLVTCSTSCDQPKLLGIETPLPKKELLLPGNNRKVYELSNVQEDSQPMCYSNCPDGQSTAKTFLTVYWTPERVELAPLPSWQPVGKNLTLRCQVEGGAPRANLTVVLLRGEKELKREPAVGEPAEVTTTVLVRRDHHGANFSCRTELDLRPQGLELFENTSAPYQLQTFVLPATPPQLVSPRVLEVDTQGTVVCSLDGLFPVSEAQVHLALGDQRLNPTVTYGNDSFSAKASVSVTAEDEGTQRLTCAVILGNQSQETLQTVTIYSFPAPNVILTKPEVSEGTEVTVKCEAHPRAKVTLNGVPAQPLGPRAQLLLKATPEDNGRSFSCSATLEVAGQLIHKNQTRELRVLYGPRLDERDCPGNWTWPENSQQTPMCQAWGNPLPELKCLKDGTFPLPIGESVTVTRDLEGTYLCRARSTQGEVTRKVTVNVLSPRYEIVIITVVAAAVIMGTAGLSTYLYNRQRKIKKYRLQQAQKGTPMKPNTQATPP

ICAM-1 (from UniProt P05362 28-532) (ligand)
cytotoxicity of NK92-CD16 cells against NSCLC cells (51chromium-release assay) with the ICAM1-CD11a interaction blocked: 10%
